B1: MCvar1 PfEMP1 CIDRα2.8 domain (residues 576-745, mutant [Plasmodium falciparum] / human CD36 ectodomain (residues 35-439) with C-terminal BAP tag, biotinylated [modified: biotin on the BAP tag (in vitro, BirA ligase); biotin … (parent)
chain 1: EDKIMSYNAFFWMWVHDMLIDSIKWRDEHGRCINKDKGKTCIKGCNKKCISFQKWVEQKKTEWGKIKDHFRKQKDIPKDWTHDDFLQTLLMKDLLLEIIQDTYGDANEIKRIEALLEQAGVGGIDFAALAGLYTKGFVAEKDTTIDKLLQHEQKEADKCLKTHTDDTCPP
chain 2: QKTIKKQVVLEEGTIAFKNWVKTGTEVYRQFWIFDVQNPQEVMMNSSNIQVKQRGPYTYRVRFLAKENVTQDAEDNTVSFLQPNGAIFEPSLSVGTEADNFTVLNLAVAAASHIYQNQFVQMILNSLINKSKSSMFQVRTLRELLWGYRDPFLSLVPYPVTTTVGLFYPYNNTADGVYKVFNGKDNISKVAIIDTYKGKRNLSYWESHCDMINGTDAASFPPFVEKSQVLQFFSSDICRSIYAVFESDVNLKGIPVYRFVLPSKAFASPVENPDNYCFCTEKIISKNCTSYGVLDISKCKEGRPVYISLPHFLYASPDVSEPIDGLNPNEEEHRTYLDIEPITGFTLQFAKRLQVNLLVKPSEKIQVLKNLKRNYIVPILWLNETGTIGDEKANMFRSQVTGKIN

Variants of: B1
Assay: SPR
Settings: with human CD36 ectodomain (residues 35-439) with C-terminal BAP tag, plateau of the top sensorgram (highest analyte concentration of the series), concentrations not given, parent: 62, read off a plot

Row | Variant | response
1 | chain 1 Q73A | 27 RU
2 | chain 1 E97A | 40 RU

Source: publication PMC5052687
